Reference: patent US5747447

Tests used:
[1] = molecular target: GP IIb-IIIa on human platelets (human), P08514
[2] = molecular target: T1, vitronectin receptor (M21 melanoma cell attachment assay) (Homo sapiens (Human)), P06756
T1 chain 1: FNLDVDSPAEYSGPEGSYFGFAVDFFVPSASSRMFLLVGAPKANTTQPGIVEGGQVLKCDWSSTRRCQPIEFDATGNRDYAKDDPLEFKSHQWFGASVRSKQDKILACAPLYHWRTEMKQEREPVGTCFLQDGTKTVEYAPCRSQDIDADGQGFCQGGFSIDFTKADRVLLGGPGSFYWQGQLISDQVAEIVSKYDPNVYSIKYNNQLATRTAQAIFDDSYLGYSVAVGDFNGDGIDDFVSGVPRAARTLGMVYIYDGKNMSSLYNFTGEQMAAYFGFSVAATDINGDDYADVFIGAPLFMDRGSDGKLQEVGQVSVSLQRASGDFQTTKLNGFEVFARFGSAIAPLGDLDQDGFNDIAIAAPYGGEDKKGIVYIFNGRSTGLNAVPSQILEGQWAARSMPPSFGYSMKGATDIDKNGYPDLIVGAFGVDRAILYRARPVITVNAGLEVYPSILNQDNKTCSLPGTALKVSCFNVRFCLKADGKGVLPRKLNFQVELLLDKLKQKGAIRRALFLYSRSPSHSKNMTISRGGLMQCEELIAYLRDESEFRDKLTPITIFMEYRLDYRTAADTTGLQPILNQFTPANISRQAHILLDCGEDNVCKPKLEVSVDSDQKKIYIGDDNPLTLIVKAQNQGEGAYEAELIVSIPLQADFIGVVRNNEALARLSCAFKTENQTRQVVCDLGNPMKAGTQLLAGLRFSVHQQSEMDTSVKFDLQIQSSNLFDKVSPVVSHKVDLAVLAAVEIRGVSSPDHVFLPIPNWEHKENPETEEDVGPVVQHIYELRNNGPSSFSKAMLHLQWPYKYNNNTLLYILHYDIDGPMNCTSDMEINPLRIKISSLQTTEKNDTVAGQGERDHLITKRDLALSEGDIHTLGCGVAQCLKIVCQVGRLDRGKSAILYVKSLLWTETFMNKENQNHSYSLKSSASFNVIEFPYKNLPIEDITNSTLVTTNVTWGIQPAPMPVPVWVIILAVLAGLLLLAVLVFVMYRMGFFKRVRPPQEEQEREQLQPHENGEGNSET
T1 chain 2: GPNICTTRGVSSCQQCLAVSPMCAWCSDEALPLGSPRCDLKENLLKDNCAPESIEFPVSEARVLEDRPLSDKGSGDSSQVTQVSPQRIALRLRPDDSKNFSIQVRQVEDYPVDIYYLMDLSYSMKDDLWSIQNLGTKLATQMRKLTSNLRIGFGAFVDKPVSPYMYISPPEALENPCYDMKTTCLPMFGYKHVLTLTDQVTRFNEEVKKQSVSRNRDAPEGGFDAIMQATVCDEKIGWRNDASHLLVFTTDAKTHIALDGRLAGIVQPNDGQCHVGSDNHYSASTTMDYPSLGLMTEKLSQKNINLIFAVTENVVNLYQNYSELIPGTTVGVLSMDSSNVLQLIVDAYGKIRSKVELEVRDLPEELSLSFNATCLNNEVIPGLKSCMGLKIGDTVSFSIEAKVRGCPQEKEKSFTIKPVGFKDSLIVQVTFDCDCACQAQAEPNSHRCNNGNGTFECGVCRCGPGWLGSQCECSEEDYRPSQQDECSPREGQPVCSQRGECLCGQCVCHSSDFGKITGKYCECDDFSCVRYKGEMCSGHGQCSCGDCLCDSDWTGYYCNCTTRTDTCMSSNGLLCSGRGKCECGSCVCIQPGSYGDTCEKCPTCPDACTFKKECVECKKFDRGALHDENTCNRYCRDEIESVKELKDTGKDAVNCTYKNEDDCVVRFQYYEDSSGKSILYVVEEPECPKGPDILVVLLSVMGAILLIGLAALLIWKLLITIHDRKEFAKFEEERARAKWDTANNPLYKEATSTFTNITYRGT

Binder | Appr, IC50 (uM): inhibition of ADP-induced human platelet aggregation [1] [µM] | M21 cell attachment to vitronectin [2] [µM]
CGKGDWPC (modifications not checked) [analog #5] | 5 | –
GCKGDWPCA (modifications not checked) [analog #4] | 5 | –
GCGKGDWPCA (modifications not checked) [analog #3] | – | > 60
